# Measurements: patent US20210206856A1 (PANDION OPERATIONS, published 2021)
# T1: human MAdCAM expressed on cells (human, UniProt Q13477 19-382)
# T1 construct: whole, on cells; also called MADCAM1
# T1 sequence (looked up): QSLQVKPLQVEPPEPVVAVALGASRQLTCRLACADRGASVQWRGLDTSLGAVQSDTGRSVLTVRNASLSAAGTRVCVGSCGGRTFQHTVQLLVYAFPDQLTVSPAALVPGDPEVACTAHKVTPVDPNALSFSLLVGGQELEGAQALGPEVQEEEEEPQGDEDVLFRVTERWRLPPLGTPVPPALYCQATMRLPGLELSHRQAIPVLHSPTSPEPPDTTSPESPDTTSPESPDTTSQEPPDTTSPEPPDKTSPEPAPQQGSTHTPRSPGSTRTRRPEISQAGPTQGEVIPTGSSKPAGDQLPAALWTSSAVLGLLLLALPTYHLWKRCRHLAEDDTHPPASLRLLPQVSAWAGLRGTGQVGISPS
# T2: mouse MAdCAM expressed on cells (mouse, UniProt Q61826 22-405)
# T2 construct: whole, on cells
# T2 sequence (looked up): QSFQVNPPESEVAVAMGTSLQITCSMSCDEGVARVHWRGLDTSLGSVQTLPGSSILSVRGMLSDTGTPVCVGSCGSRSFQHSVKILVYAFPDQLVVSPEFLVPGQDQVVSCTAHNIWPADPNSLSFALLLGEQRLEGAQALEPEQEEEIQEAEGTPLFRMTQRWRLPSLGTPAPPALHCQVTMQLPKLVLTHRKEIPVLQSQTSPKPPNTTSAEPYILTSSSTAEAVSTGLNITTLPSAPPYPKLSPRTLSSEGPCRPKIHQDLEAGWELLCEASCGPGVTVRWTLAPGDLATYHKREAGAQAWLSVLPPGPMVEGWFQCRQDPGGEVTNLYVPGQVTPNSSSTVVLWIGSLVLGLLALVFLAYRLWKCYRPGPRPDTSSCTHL
# B1: MAdCAM Antibody Table 1 Clone 63 (scFv)
# scFv: EVQLLESGGGLVKPGGSLRLSCAASGFTFDDYAMHWVRQAPGKGLEWVASITSSSAFIDYAASVKGRFTISRDDSKNTLYLQMNSLKTEDTAVYYCARERVDWNSYFDLWGRGTLVTVSSGGGGSGGGGSGGGGSGGGGSEIVMTQSPATLSVSPGERATLSCRASQGISNSYLAWYQQKPGQAPRLLIYGASTRATGIPARFSGSGSGTEFTLTISSLQSEDFAVYYCQQYYTYPPTFGPGTKVDIK
# B2: MAdCAM Antibody Table 1 Clone 65 (scFv)
# scFv: QVQLVQSGAEVKKPGASVKVSCKASGYTFTRHWIHWVRQAPGQGLEWMGWINVKTGGAGYAQKFQGRVTMTRDTSTSTVYMELSSLRSEDTAVYYCARESSGWYGTDVWGQGTTVTVSSGGGGSGGGGSGGGGSGGGGSDIQMTQSPSSLSASVGDRATITCRASQSISNYLAWYQQKPGKAPKLLIYAASSLQSGVPSRFSGSGSGTDFTLTISSLQPEDFATYYCQQSNSFPLTFGGGTKVEIK
# B3: MAdCAM Antibody Table 1 Clone 57 (scFv)
# scFv: QVQLVQSGAEVKKPGASVKVSCKASGYTFTSYYMHWVRQAPGQGLEWMGIINPSGGSTSYAQKFQGRVTMTRDTSTSTVYMELSSLRSEDTAVYYCARDSVAGTGGRYYGMDVWGQGTLVTVSSGGGGSGGGGSGGGGSGGGGSDIQMTQSPSSLSASVGDRVTITCRASQGISNYFAWYQQKPGKAPKLLIYAASSLQGGVPSRFSGSGSGTDFTLTISSLQPEDFATYYCQQSYSLPYTFGQGTKLEIK
# B4: MAdCAM Antibody Table 1 Clone 64 (scFv)
# scFv: EVQLLESGGGLVKPGGSLRLSCAASGFAFSSHWMHWVRQAPGKGLEWVAGTSGSGESRDYADFVKGRFTISRDDSKNTLYLQMNSLKTEDTAVYYCARETYYYYYMDVWGKGTTVTVSSGGGGSGGGGSGGGGSGGGGSDIQMTQSPSSLSASVGDRVTITCRASQGISNYLAWYQQKPGKAPKLLIYDAANLEGGVPSRFSGSGSGTDFTLTISSLQPEDFATYYCQQSDIFPPTFGQGTKVEIK
# B5: MAdCAM Antibody Table 1 Clone 55 (scFv)
# scFv: QVQLVQSGAEVKKPGASVKVSCKASGYTFTSYYMHWVRQAPGQGLEWMGIIDPSGGSTSYAQKFQGRVTMTRDTSTSTVYMELSSLRSEDTAVYYCAREEWSSGGVGYFDYWGQGTLVTVSSGGGGSGGGGSGGGGSGGGGSDIQMTQSPSSLSASVGDRVTITCRASQGISSYLAWYQQKPGKAPKLLIYATSSLQTGVPSRFSGSGSGTDFTLTISSLQPEDFATYYCQQTYSIPITFGQGTRLEIK
# B6: MAdCAM Antibody Table 1 Clone 53 (scFv)
# scFv: QVQLVQSGAEVKKPGASVKVSCKASGYTFTSYDINWVRQAPGQGLEWMGWMNPNSGNTGYAQKFQGRVTMTRDTSTSTVYMELSSLRSEDTAVYYCAKDSDYSNLLWDYWGQGTLVTVSSGGGGSGGGGSGGGGSGGGGSDIQMTQSPSSLSASVGDRVTITCRASQDITNDLGWYQQKPGKAPKLLIYQASSLESGVPSRFSGSGSGTDFTLTISSLQPEDFATYYCQQSYTIPLTFGQGTKVEIK
# B7: MAdCAM Antibody Table 1 Clone 58 (scFv)
# scFv: QVQLVQSGAEVKKPGASVKVSCKASGYTFTGYYMHWVRQAPGQGLEWMGIINPSGGNTKYAQKFQGRVTMTRDTSTSTVYMELSSLRSEDTAVYYCTTADYYYYMDVWGKGTTVTVSSGGGGSGGGGSGGGGSGGGGSDIQMTQSPSSLSASVGDRVTITCRASQGISNYLAWYQQKPGKAPKLLIYAASSLQSGVPSRFSGSGSGTDFTLTISSLQPEDFATYYCQQYYSNADFGQGTKVEIK
# B8: MAdCAM Antibody Table 1 Clone 54 (scFv)
# scFv: EVQLLESGGGLVQPGGSLRLSCAASGFTFGDYAMSWVRQAPGKGLEWVAVVSYDGTNKYYADSVKGRFTISRDNSKNTLYLQMNSLRAEDTAVYYCAKDICSSTSCYFDLWGRGTLVTVSSGGGGSGGGGSGGGGSGGGGSDIQMTQSPSSLSASVGDRVTITCRASQNINNYVNWYQQKPGKAPKLLIYDASNLETGVPSRFSGSGSGTDFTLTISSLQPEDFATYYCQQANSFPPTFGQGTRLEIK
# B9: MAdCAM Antibody Table 1 Clone 61 (scFv)
# scFv: EVQLLESGGGLVQPGGSLRLSCAASEFTFSNAWMSWVRQAPGKGLEWVASISSTSAYIDYADSVKGRFTISRDNSKNTLYLQMNSLRAEDTAVYYCAREVVGATTFDYWGQGTLVTVSSGGGGSGGGGSGGGGSGGGGSDIQMTQSPSSLSASVGDRVTITCRASQSISTWLAWYQQKPGKAPKLLIYAASSLQSGVPSRFSGSGSGTDFTLTISSLQPEDFATYYCQQANAFPPTFGQGTRLEIK
# B10: MAdCAM Antibody Table 1 Clone 48 (scFv)
# scFv: EVQLLESGGGLVQPGGSLRLSCAASGFTFSDHGMHWVRQAPGKGLEWVSVIYGGESTYYADSVKGRFTISRDNSKNTLYLQMNSLRAEDTAVYYCARDPAVAGGGIFDYWGQGTLVTVSSGGGGSGGGGSGGGGSGGGGSDIQMTQSPSSLSASVGDRVTITCRASQGISNYLAWYQQKPGKAPKLLIYDASNLETGVPSRFSGSGSGTDFTLTISSLQPEDFATYYCQQSYSTCYTFGQGTKLEIK
# B11: MAdCAM Antibody Table 1 Clone 50 (scFv)
# scFv: QVQLVQSGAEVKKPGASVKVSCKASGYTFTSYDINWVRQAPGQGLEWMGWINPNSGTTGYAQKFQGRVTMTRDTSTSTVYMELSSLRSEDTAVYYCARSPYYYYGMDVWGQGTTVTVSSGGGGSGGGGSGGGGSGGGGSDIQMTQSPSSLSASVGDRVTITCRASHFISRWVAWYQQKPGKAPKLLIYAASTLQSGVPSRFSGSGSGTDFTLTISSLQPEDFATYYCQQSYSGISFGPGTKVDIK
# B12: MAdCAM Antibody Table 1 Clone 52 (scFv)
# scFv: EVQLLESGGGLVQPGGSLRLSCAASGFTFSNSDMNWVRQAPGKGLEWVAHIWNDGSQKYYADSVKGRFTISRDNSKNTLYLQMNSLRAEDTAVYYCARDRTDPGYSSAMDVWGQGTTVTVSSGGGGSGGGGSGGGGSGGGGSDIQMTQSPSSLSASVGDRVTITCRASQDIRNYLGWYQQKPGKAPKLLIYDASSLETGVPSRFSGSGSGTDFTLTISSLQPEDFATYYCQQATSLPLTFGGGTKVEIK
# B13: MAdCAM Antibody Table 1 Clone 59 (scFv)
# scFv: EVQLLESGGGLVQPGGSLRLSCAASGFTFSDFWMHWVRQAPGKGLEWISYISGDSGYTNYADSVKGRFTISRDNSKNTLYLQMNSLRAEDTAVYYCARDRPYYYYMDVWGKGTTVTVSSGGGGSGGGGSGGGGSGGGGSDIQMTQSPSSLSASVGDRVTITCRASQSVSRSLAWYQQKPGKAPKLLIYAASSLQSGVPSRFSGSGSGTDFTLTISSLQPEDFATYYCQQYKSYPVTFGQGTKVEIK
# B14: MAdCAM Antibody Table 1 Clone 60 (scFv)
# scFv: EVQLLESGGGLVQPGGSLRLSCAASGFTFDDYTMHWVRQAPGKGLEWVSDISGSGGSTYYADSVKGRFTISRDNSKNTLYLQMNSLRAEDTAVYYCAKDVVVAGTPLHFDYWGQGTLVTVSSGGGGSGGGGSGGGGSGGGGSDIQMTQSPSSLSASVGDRVTITCQASQDISNYLNWYQQKPGKAPKLLIYAASYLQSGVPSRFSGSGSGTDFTLTISSLQPEDFATYYCQQAHNYPITFGQGTRLEIK
# B15: MAdCAM Antibody Table 1 Clone 51 (scFv)
# scFv: EVQLLESGGGLVQPGGSLRLSCAASGFTFNNYGMNWVRQAPGKGLEWVSRINSDGSSTSYADSVKGRFTISRDNSKNTLYLQMNSLRAEDTAVYYCARGAYYYYYMDVWGQGTLVTVSSGGGGSGGGGSGGGGSGGGGSEIVMTQSPATLSVSPGERATLSCRASQSVSGSYLAWYQQKPGQAPRLLIYATSSRASGIPARFSGSGSGTEFTLTISSLQSEDFAVYYCQQYYSGLTFGQGTKVEIK
# B16: MAdCAM Antibody Table 1 Clone 49 (scFv)
# scFv: QVQLVQSGAEVKKPGASVKVSCKASGDTFTGYYIHWVRQAPGQGLEWMGWINPNSGGTNYAQKFQGRVTMTRDTSTSTVYMELSSLRSEDTAVYYCARSGLWLGSYYGMDVWGQGTLVTVSSGGGGSGGGGSGGGGSGGGGSDIQMTQSPSSLSASVGDRVTITCRASQTISIWLAWYQQKPGKAPKLLIYDASTLQSGVPSRFSGSGSGTDFTLTISSLQPEDFATYYCQQYSSYPLTFGQGTKVEIK
# B17: MAdCAM Antibody Table 1 Clone 66 (scFv)
# scFv: EVQLLESGGGLVQPGGSLRLSCAASGFTFSSYWMHWVRQAPGKGLEWVAAISYDGKYKDYEDSVKGRFTISRDNSKNTLYLQMNSLRAEDTAVYYCARENKQWLASFDYWGQGTLVTVSSGGGGSGGGGSGGGGSGGGGSDIQMTQSPSSLSASVGDRVTITCQASQDISNFVNWYQQKPGKAPKLLIYAANLRSGVPSRFSGSGSGTDFTLTISSLQPEDFATYYCQQANSFPVTFGPGTKVDIK
# Target: T1, human MAdCAM expressed on cells
# Test: cell binding
row,binding result,Binder
1,binds,B1
2,binds,B2
3,binds,B3
4,binds,B4
5,binds,B5
6,binds,B6
7,binds,B7
8,binds,B8
9,binds,B9
10,binds,B10
11,binds,B11
12,binds,B12
13,binds,B13
14,binds,B14
15,binds,B15
16,binds,B16
17,binds,B17

# Target: T2, mouse MAdCAM expressed on cells
# Test: cell binding
row,binding result,Binder
1,binds,B1
2,binds,B2
3,no binding,B3
4,binds,B4
5,no binding,B5
6,no binding,B6
7,no binding,B7
8,no binding,B8
9,binds,B9
10,no binding,B10
11,no binding,B11
12,no binding,B12
13,binds,B13
14,binds,B14
15,no binding,B15
16,no binding,B16
17,binds,B17
